Consider 40 sequences from the nanobody polyreactivity screen of Harvey et al. (2022).

The data set can be described thus: yeast display, Sf9 membrane polyspecificity reagent, FACS + sequencing; frameworks hold sequencing errors. The procedure, abridged:
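Synthetic nanobody libraries on Saccharomyces cerevisiae BJ5465 were galactose-induced for 36–48 hours, stained 1 hour at 4 °C with 10% biotinylated, detergent-solubilized Sf9 membrane reagent and enriched on streptavidin microbeads. FACS then separated cells into low and high (top ~1%) gates by anti-HA (expression) and streptavidin (reagent binding) fluorescence. Genes were colony-PCR amplified, MiSeq 2 × 250 sequenced and CDR-length filtered. A clone's polyreactivity label is that of its gate of origin.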
“QVQLVESGGGLVQAGGSLRLSCAASGSIFQAYAMGWYRQAPGKERELVASISQSGDSTYYADSVKGRFTISRDNAKNTVYLQMNSLKPEDTAVYYCAAVQYGHRRGRVSVRRRLDYWGQGTQVTVSS”: the “polyreactivity (PSR sort gate)” value was “low polyreactivity”.

Consider “QVQLVESGGGLVQAGGSLRLSCAASGSIFQENAMGWYRQAPGKERELVAAINTGSITSYADSVKGRFTISRDNAKNTVYLQMNSLKPEDTAVYYCAADSFSLYDSWGQGTQVTVSS”, for which the “polyreactivity (PSR sort gate)” value is recorded as “low polyreactivity”. For “QVQLVESGGGLVQAGGSLRLSCAASGSIFQFYAMGWYRQAPGKERELVAVITTSGVSTYYADSVKGRFTISRDNAKNTVYLQMNSLKPEDTAVYYCAADDYYLAGDYWGQGTQVTVSS” the value was “low polyreactivity”; for “QVQLVESGGGLVQAGGSLRLSCAASGSIFQFYAMGWYRQAPGKERELVAVITTSGVSTYYADSVKGRFTISRDNAMNTVYLQMNSLKPEDTAVYFCAADDYYLAGDYWGQGTQVTVSS”, “low polyreactivity”; for “QVQLVESGGGLVQAGGSLRLSCAASGSIFQHNAMGWYRQAPGKERELVATISESGGSTYYADSVKGRFTISRDNAKNTVYLQMNSLKPEDTAVYYCNTDYDYGWWDLGEFDYWGQGTQVTVSS”, “low polyreactivity”.

Take “QVQLVESGGGLVQAGGSLRLSCAASGSIFQHYSLGRSRQAPGKERELVAAISYDTTSTYYADSVKGRFTISRDNAKNNVYLQMNSLKPEDTAVYYCNTYPEVYGPFQYDYWGQGTQVTVSS”: the “polyreactivity (PSR sort gate)” value was “low polyreactivity”. For “QVQLVESGGGLVQAGGSLRLSCAASGSIFQIYAMGWYRQAPGKERELAAAINSGGITKYADSVKGRFTISRDNAKNTVYLQMNSLKPEDTAVYYCAKRYGWPYGRFDYWGQGTQVTVSS” the value was “low polyreactivity”.

In the case of “QVQLVESGGGLVQAGGSLRLSCAASGSIFQRNTIGWYIQAPGKERELVAAISRSGGSTYYADSVKGLFTISRDNAKITVYLQMKSLKPEDTEVYYCAVSGGTSRRYYYWGQGTKVTVSS”, the “polyreactivity (PSR sort gate)” value is given as “high polyreactivity”.

As to “QVQLVESGGGLVQAGGSLRLSCAASGSIFQSYDMGWSRQAPGKERELVAAITRSGGRTYYAASVKGRFTISRDNAKNTVYLQMNSLKPEDTAVYYCAAFGWGYGYWGQGTQVTVSS”, the “polyreactivity (PSR sort gate)” value is reported as “high polyreactivity”.

As for “QVQLVESGGGLVQAGGSLRLSCAASGSIFQTYAMGWYRQAPGKERELVAAITSGGGSTYYADSVKGRFTISRDNAKNTVYLQMNSLKPEDTAVYYCNRLYRYLVWPAGEYDYWGQGTQVTVTS”, the “polyreactivity (PSR sort gate)” value was “high polyreactivity”. For “QVQLVESGGGLVQAGGSLRLSCAASGSIFQVYAMGWYRQAPGKEREFVAAISYSGGGTYYADSVKGRFTISRDNAKNTVYLQMNSLKPEDTAVYYCAADVSGWEYDYWGQGTQVTVSS”, the “polyreactivity (PSR sort gate)” value is listed as “low polyreactivity”. For the sequence “QVQLVESGGGLVQAGGSLRLSCAASGSIFQVYAMGWYRQAPGNESEFVADIDWSGESTYYADSVKGRFTISRDNAKNTVYLQMNSLKPEDTAVYYCAAEDGYVTWDRDYEYWGQGTQVTVSS”, the “polyreactivity (PSR sort gate)” value is recorded as “low polyreactivity”.

Take “QVQLVESGGGLVQAGGSLRLSCAASGSIFQWYAMGWYRQAPGKERELVAAISFNGGITYYADSVKGRFTISRDIAKNTVYLQMNSLKPEDTAVYYCATLPGWGYAAYEYWGQGTQVTVSS”: the “polyreactivity (PSR sort gate)” value is “low polyreactivity”. The result for “QVQLVESGGGLVQAGGSLRLSCAASGSIFQWYAMGWYRQAPGKERELVAAITISGTRTYYADSVKGRFTISRDNAKNTVYLQMNSLKPEDTAVYYCAARYTPRRYYYWGQGTQVTVSS” reads “high polyreactivity”; that for “QVQLVESGGGLVQAGGSLRLSCAASGSIFQYNAMGWYRQAPGKESELVAVISWSGDTYYADSVKGRFTISRDNAKNTVYLQMNSLKPEDTAVYYCATDVLAWAPNDYWGQGTQVTVSS”, “low polyreactivity”.

Take “QVQLVESGGGLVQAGGSLRLSCAASGSIFQYNTMGWYRQAPGKERELVAAINWSGVSTYYADSVKGRFTISRDNAKNTVYLQMNSLKPEDTAVYYCNARRYVAGSYIYERGYWGQGTQVTVSS”: the “polyreactivity (PSR sort gate)” value is given as “high polyreactivity”.

On to “QVQLVESGGGLVQAGGSLRLSCAASGSIFRANVMGWYRQAPGKERELVASINSDDNTYYADSVKGRFTISRDNAKNTVYLQMKRLKPEDSAVYYCYSEWGLFYDWTVLHMYLDGYYYWGQGTEVTVSS”, for which the “polyreactivity (PSR sort gate)” value is given as “low polyreactivity”. The result for “QVQLVESGGGLVQAGGSLRLSCAASGSIFRAYAMGWYRQAPGKERELVATISGSGGSTDYADSVKGRFTISRDTAKNTVYLQMNSLKPEDTAVYYCARDDPASHKRYWHDYWGQGTQVTVSS” reads “low polyreactivity”; that for “QVQLVESGGGLVQAGGSLRLSCAASGSIFRFNAMGWSRQAPGKERELVARITSGGSTNYADSVKGRFTISRDNAKNTVYLQMNSLKPEDTAVYYCAAVYLLRGRRVTSYPYGYWGQGTQVTVSS”, “high polyreactivity”; that for “QVQLVESGGGLVQAGGSLRLSCAASGSIFRGNAIGWYRQAPGKDRELVAAISWNGVSTYYADSVKGRFTISRDNAKHTVYLQMNSLKPEDTAVYYCPTVGLRRLFVKPGTLKDYWGQGTQVTVSS”, “low polyreactivity”. For “QVQLVESGGGLVQAGGSLRLSCAASGSIFRGNAMGWYRQAPGKERELVAAISKSGGSTYYADSVKGRFTISRDNAKNTVYLQMNSLKPEDTAVYYCAARTTYLYGMYYWGQGTQVTVSS” the value was “low polyreactivity”. For the sequence “QVQLVESGGGLVQAGGSLRLSCAASGSIFRGNTMGWYRQAPGKERELLAAINWTGGSTYYADSVKGRFTISRDNAKYTVYLQMNSLKPEDTAVYYCAARKFTSYYWGRSYGYWGQGTQVTVSS”, the “polyreactivity (PSR sort gate)” value is “high polyreactivity”. In the case of “QVQLVESGGGLVQAGGSLRLSCAASGSIFRGYAMGWYRPAPGKERELVAAISSSGGTTYYADSVKGRFTISRDNAKNTVYLQMNSLKPEDTAVYYCNARHPYTGGRRYPYTRYDYWGQGTQVTVSS”, the “polyreactivity (PSR sort gate)” value is reported as “high polyreactivity”.

Consider “QVQLVESGGGLVQAGGSLRLSCAASGSIFRGYAMGWYRQAPGKEREFVASITWSAGRTRYADSVKGRFTISRDNAKNTVYLQMNSLKPEDTAVYYCAADHGSYWPRYDYWGQGTQVTVSS”, for which the “polyreactivity (PSR sort gate)” value is on record as “high polyreactivity”. The result for “QVQLVESGGGLVQAGGSLRLSCAASGSIFRGYAMGWYRQAPGKERELVAGIRGSDGSTYYADSVKGRFTISRDNAKNTVYLQMNSLKPEDTAVYYCAADRRYLDRDKHRYGYWGQGTQVTVSS” reads “low polyreactivity”; that for “QVQLVESGGGLVQAGGSLRLSCAASGSIFRHNAMGGYRQSPGKERELVAAISRRASSTYYADSVKGRFTISRDNAKNTVYLQLNSLKPEDTAVYYCAVVPSTTYHAYDYWGQGTQVTVSS”, “high polyreactivity”; that for “QVQLVESGGGLVQAGGSLRLSCAASGSIFRIYAMGWYRQAPGKERELVAAITGRGGSTYYADSVKGRFTISRDNAKNTVYLQMNSLKPEDTAVYYCAAEERYAYRYDYWGQGTQVTVSS”, “high polyreactivity”.

“QVQLVESGGGLVQAGGSLRLSCAASGSIFRIYAMGWYRQAPGKEREWVAAINSGGITNYADSVKGRFTISRDNAKNTVYLQMNSLKPEDTAVYYCNARQGVYGLYLRAYPYEYWGQATQVTVSS”: the “polyreactivity (PSR sort gate)” value is “low polyreactivity”.

“QVQLVESGGGLVQAGGSLRLSCAASGSIFRIYVMGWYRQAPGKERELVAAINSGGRTKYADSVKGRFTISRDNAKNTVYLLMNSLKPDDTAVYYCAAAFLYRKGVSSLYDSWGQGTQVTVSS”: the “polyreactivity (PSR sort gate)” value is reported as “high polyreactivity”. With “QVQLVESGGGLVQAGGSLRLSCAASGSIFRIYVMGWYRQAPGKERELVAAITNDGSTSYADSVKGRFTISRDNAKNTVYLQMNSLKPEDTAVYYCNAYRRRATYNGDYWGQGTQVTVSS”, the “polyreactivity (PSR sort gate)” value is reported as “high polyreactivity”.

With “QVQLVESGGGLVQAGGSLRLSCAASGSIFRKNAMGWYREAPGKERELVATISGGGSTTYADSVKGRFTISRDNAKNTLYLQMNSLKPEDTAVYYCAARSTWFQIRYGYWGQGNQVTVSS”, the “polyreactivity (PSR sort gate)” value was “high polyreactivity”. With “QVQLVESGGGLVQAGGSLRLSCAASGSIFRKNAMGWYRPAPGKERELVATISGGGSTTYADSVKGRFTISRDNAKNTVYVHMNSLKPEDTAVYYCAARSTWFQLRYGYGGQGTQVTVSS”, the “polyreactivity (PSR sort gate)” value is reported as “high polyreactivity”.

For “QVQLVESGGGLVQAGGSLRLSCAASGSIFRKYAMGWYRQAPGKERELVAAITGSGGSTYYADSVKGRFTISRDNAKNTVYLQMNSLKPEDTAVYYCAAPFGWRPLPISKVTSDYWGQGTQVTVSS”, the “polyreactivity (PSR sort gate)” value is “high polyreactivity”. On to “QVQLVESGGGLVQAGGSLRLSCAASGSIFRKYTMGWYRQAPGKERELVAAINTNGGSTYYADSVKGRFTISRDNAKNTVYLQMNSLKPEDTAVYYCRAWAQNQYNYWGQGTQVTVSS”, for which the “polyreactivity (PSR sort gate)” value is on record as “high polyreactivity”. Consider “QVQLVESGGGLVQAGGSLRLSCAASGSIFRLNTMGWYRQAPGKERELVAAITRSGSTNYADSVKGRFTISRDNAMNTVYLQMNSLKPEDTAVYYCAARYPREAAYGFEYWGQGTQVTVSS”, for which the “polyreactivity (PSR sort gate)” value is “high polyreactivity”. The result for “QVQLVESGGGLVQAGGSLRLSCAASGSIFRLYAMGWYRQAPGKERELVAAITGRGTSTYYADSVKGRFTISRDNAKNTVYLQMNSLKPEDTAVYYCAARLFKNSGTTYDRYGYWGQGTQVTVSS” reads “high polyreactivity”; that for “QVQLVESGGGLVQAGGSLRLSCAASGSIFRNYAMGWSRPATGKERELVASIRYSGGRTNYADSVKGRFTISRDNAKNTVYLQMNSLKPEDTAVYYCAADPGYGWQRAYYYWGQGTQVTVSS”, “high polyreactivity”. On to “QVQLVESGGGLVQAGGSLRLSCAASGSIFRNYAMGWYRKAPGKERELVADSTYYADSVKGRFTISRDNAKNTVYLQMNSLKPEDTAVYYCNTVYATRYDYWGQGTQVTVSS”, for which the “polyreactivity (PSR sort gate)” value is given as “high polyreactivity”. The result for “QVQLVESGGGLVQAGGSLRLSCAASGSIFRNYAMGWYRQAPGKERELVSAITRGGGSTYYADSVKARFTISRDNAKNTVYLQMNSLKPEETAVYYCAAVRVFQYKYDRFNYWGQGTQVTVSS” reads “high polyreactivity”; that for “QVQLVESGGGLVQAGGSLRLSCAASGSIFRPNALGWYRQAPGKERELVAAITWSGDSTYYADSVKGRFTISRDNAKNTVYLQINSLKPEDTAVYYCAVVSYKVTESGIRMYYWGQGTQVTVSS”, “low polyreactivity”.
